test: yeast display, Sf9 membrane polyspecificity reagent, FACS + sequencing; frameworks hold sequencing errors
In short: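 Galactose induction of a Saccharomyces cerevisiae BJ5465 synthetic nanobody display library ran 36–48 hours. The cells were then stained for 1 hour at 4 °C with 10% biotinylated, detergent-solubilized Sf9 membrane reagent, pulled down on streptavidin microbeads and FACS-sorted into low and high (top ~1%) gates on expression and reagent-binding fluorescence. Labels for polyreactivity follow the gate of origin.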

Sequence	polyreactivity (PSR sort gate)
QVQLVESGGGLGQAGGSLRLSCAASGFTFYAYVMGWYRQAPGKESELVAAISGSGSSTYYADSVKGRFTISRDNAKNTVDLEMNSLKPEDTAVYYCGAPQLYQYGGFGYWGQGTQVTVSS	high polyreactivity
QVQLVESGGGLVQAGGSLRLSCAASGRIFSYYTMGWYRQAPGKERELVAAITGSGGTTYYADSVKGRFTISRDNAKNTVYLQMNSLKPEDTAVYYCAARGYYRWAPYADWRFNYWGQGTQVTVSS	high polyreactivity
QVQLVESGGGLVQAGGSLRLSCAASGSIFFVYAMGWYRQAPGKERELVAGIRWSGGRTSYADSVKGRFTISRDNAKNTVYLQMNSLNPEDTAVYYCAADPRSYFTSEYWGQGTQVTVSS	high polyreactivity
QVQLVESAGGLVQAGGSLRLSCAASGITFRYYAMGWYRQAPGKERELVATITRGGSTYYADSVKGRFTISRDNAKNTVYLQMNSLKPEDTAVYYCAARSYVPSYDYWGQGTQVTVSS	high polyreactivity
QVQHVESGGGLVQAGGSLRLSCAASGSTFYHNAMGWYRQAPGKERELVAAITSGTSTYYADSVKGRFTISRDNAKNTVYLHMNSLKPEDTAVYYCAADSPWGGGYFVLYNYWGQGTQVTVSS	low polyreactivity
QVQLVESGGGLVPAGGSLRLSCAASGRTLGYNAMGWYRQAPGKERELVAAISRGDSTNYADSVKGRFTISRDNAKNTVYLQMNSLKPEDTAVYYCAAAFPRYRSRAIRVDYWGQGTQVTVSS	high polyreactivity
QVQLVESGGGIVQAGGSLRLLCAASGRNIINYDMGWYRQAPGKERELVAAITWSTGSTYADSVNGRFTISRDNAKNTVYLQMNSLSPEDTAVYYCAAPWGQTDDRHQGGDYWGQGTQVTVSS	low polyreactivity
QVQLVESGGGLVQAGGSLRLICAASGSTFKTYAMGWYRQAPGQEREFVASISGSGGSTSYADSVKGRFTISRDNAKNTVYLQMNSLKPEDTAVYYCAARLQKPTIGKGVYYWGQGTLVTVSS	high polyreactivity
QVQLVESGGGLLQAGGSLRLSFAASGSIVGPYGRGWYRQAPGKERELVAAISTVGGSTYYADSVKGRFTISRDNAKNTVYLQMNSLTPEDTAGYYCAKVPRYIELSRQATHSYDYWGHGTQVTVSS	low polyreactivity
QVQLVESGGGLVQAGGTLRLSCAASGRTFVPYAMGWYRQAPGKERELVATISSSGGSTYYADSVKGRFTISRDNSKNTVYLQMNSLKPEDTAVYYCATADRWSSSYYRSVRWYHYDYWGQGTQVTVSS	low polyreactivity
QVQLVESGGGLVQAGGSLRLICAASGRTFRVYAMGWYRQAPGKERELVASISRRGASTYYADSVKGRFTISRDIAKNTVYLQMNSLKPEDTAVYYCAADRRYYSVSPNTEFEYWGQGTQETVSS	high polyreactivity
QVQLVESGGGLVQAGGRLRLSCAASGIIFRVYTMGWYRPEPGKERELVATISLGVARTYYADSVKGRFTISRDNAKYTVYLQMNSLKPEDTAVYYCAKRRGGQGNYWGQGTQVTVSS	high polyreactivity
QVQLVESGGGLVQAGGSLRLSCAASGSIFGDYDMGWYRQAPGKERELVAAINRGGSTYYADSVKGRFTMSRDNAKNTVYLQMISLKPEDTAVYYCAAGYPSWYYGYAYDSWGQGTQVTVSS	low polyreactivity
QVQLVESGGGLVQAGGSLRLSCAASGITFGPYAMGWYRQATGKERELVAAINWSGGSTYYADSVKGRFTISRDNAKTTVYLQMNSLKPEDTAVYYCAAEPYKRLYQFYFWGQGTQVTVSS	high polyreactivity
QGQLVESGGGLVQAGGSLRLSCAASGSIFPYNDMGWYRQAPRKERELFAAINSDGSTDYADSVKGRFTISRDNAKNTVYLLMKSLKPEDTAVYDCNGDYVATFLSPPTSVSYGYWGQVTQVTVSS	low polyreactivity
QVQLVESGGGLVQAGGSLRLSCAASGIVRQNPMGWYRQAPGKERELVACISQSGGSTYYADSVKGRFTISRDNAKNTVYLQMNSLKPEDTAVYYCAVVSIWGYDYWGEGTQVTVSS	low polyreactivity
QVQLVESAGGLVQAGGSLRLSCAASGFTFYTYGMGWYRQAPGKERALVAAITSGVSTNYADSVKGRFTISRDNAKNTVYLQMNSLKPEDTAVYYCNKVGRPAYRWYDYWGQDTQVTVSS	low polyreactivity
QVQLVESGGGLVQAGGSLRLSCAASGFTFDIYAMGWYRQAPGKERELVADITSGGSTDYADSVKGRFTISRDNAKNTVYVQMNSLKPEDTAVYYSNAAVFYDPEWQYDYWGQGTQVTVSS	low polyreactivity
QVQLVESGGGLVQAGGSLRLSCAASGSILDGYDMGRYRQAPGKERDLDAAISTNSDRTYYADSVKGRFTISRDNAKNTVYLQMNSLKPEDTAVYYCNARKRRRAGYPYDYWGQGTQVTVSS	high polyreactivity
QVQLVESGGGLVQAGGSLRLSCAASGITLYRYVMGWYRQAPGKERELVADISGRGTSTYYADSVKGRFTISRDNAKNTVYLQMNSLKPEDTAVYYSNSEYTKTGALVIPYTYYYAEDYWGQGTQVTVSS	low polyreactivity
QVQLQESGGGLVQAGGSLRLSCAASGTISQEDWKGRYRQAPGKEREFVAAIGLGSNTNYADSLKGRFTISRDNAKNSVYLQMNSLKPEDTAVYYCAVSVWQYSDHVYRGQGTQVTVSS	low polyreactivity
QVQLVESGGGLVQAGGSLRLSCAASGSTFYQYAMGWYRQAPGKERELVAAISRSGSTNYADSVKGRFTISRDNAKNTVYLQMNSLKPEDTAVYDCAARLGTRQYKMDYWGQGTQVTVSS	high polyreactivity

Sequence	polyreactivity (PSR sort gate)
QVQLVESGGGLVQAGGSLRLSCAASGSILRYTMGWYRQAPGKEREWVAAITRSGTSTYYADSVKGRFTISRDNAKNTVYLQMNSLKPEDTAVYYCAASAGPRASYYYWGQGTQVTVSS	high polyreactivity
QVQLVESGGGLVQAGGSLRFSCAASGRIFRYYAMGWYRQAPGKERELVAGIRTSGGRTYADSVKGRFTISRDNAKNTVYLQMNSLKPEDTAVYYCAAGRRTLSMYYWGQGTQVTVSS	high polyreactivity
QVQLVESGGGLVQAGGSLRLSCAASGSTFVSNAMGWYRPAPGKERELVAAISTSGGSTYYADSVKGRFTISRDNAKNTVYLLMNSLKPEDTAVYYCAKLLARGFRIWQDYDYWGQGTQVTVSS	low polyreactivity
QVQLVESGGGLVQAGGSLRLSCASSGRTYTLNAMGWYRQAPGKERELVAAIRRGGSTYYADSVKGRFTISRDNAKNTVYLQMNSLKPEDTAVYYCAARGTGYHGYGYWGQGTQVTVSS	high polyreactivity
QVQLVESGGGLVQAGGSLRLSCAASGRTFGYNAMGWYIQAPGKERELVAAINWSGASTYYADSVKGRFTISRDNAKNTVYLQMNSLKPEDTAVYYCAADYSYIYGFDYWGQGTQVTVSS	low polyreactivity
QVQLVESGGGLVQAGGSLRLSCAASGRTFSRKAMRWYRQAPGKERELVASISRSGGSTYYADSVKGRFTISRDIAKNTVYLQMNSLKPEDTAVYYCAASYWHRRYDYWGQGTQVTVSS	high polyreactivity
QVKLVESGRGFVQAGGSLRISCAASGITFRYNAMGWYRQAPGKERELVAAITFSGGSTYYSDSVKGRFTISRDNAKNTVYLQMNILKPEDTAVYYCAKLGSTSTRGNYDYWGQGTQVTVSS	low polyreactivity
QVQLVESGGGLVQAGGRLRLSCAAYGSIFDGYAMGWYRQAPGKERELVAAISRGGRTYYADSVKGRFTISRDNAKNTVYLQMNSLKPEDTAVYYCAAVTRLDGNMDYWGQGTQVTVSS	high polyreactivity
QVQLVESGGGLVQAGGSLRLSCAASGRIFLGNAMGWYRQAPGKERELVAAIDASGGSTYYADSVKGRFTISRDNAKNTVYLQMNSLKPVDTAVYYCNAEPRYYSGGHGYDYWGQGTQVTVSS	low polyreactivity
QVQLVESGGGLVQAGGSLRLSCAASGFTFTDYAMGWYRRAPGKESELVAAISSGGSTNYADSVKGRFTISRDNAKNTVYLQMNSLKPEDTAVYYCAAYYVYRAPVRYEYWGQGTQVTVSS	high polyreactivity
QVQLVESGGGLVQAGGSLRLSCAASGCIFWKDAMGWYRQAPGKERELVAAITSGGGTYYADSVKGLFTISRDNAKNTVYLQMNSLKPEDTAVYYCAARSLSVARRRPYYYWGQGTQVTVSS	high polyreactivity
QVQLVESGGGLVQAGGSLRLSCAASGRTFRSYAMGWYRQAPGKERELVAVISGGGTYYADSVKGRFTISRDNAKNTVYLQMNSLKPEDTAVYYCAAQFHFRPFSWTYDYWGQGTQVTVSS	high polyreactivity
QVQLVESGGGLVQAGGSLRISCAASGSISSDNVMGWYRQAPGKERELVAAISSGTSTHYADSVKGSFTISRDNAKNTVYLQMNSLNQEDTAVYYCAAYFYRQYLYFLYEYDYWGQGTQVTVSS	low polyreactivity
QVQLVESGGGLVQAGGSLRLSCAASGFTFSRYAMGWYIQAPGKERELVAAITRGGSTNYADSVKGRFTISRDNAKNTVYLQMNSLKPEDTAVYYCAVRIRYSTNAYYYWGQGTQVTVSS	high polyreactivity
QVQLVESGGGLVQAGGSLRLICAASGSIFGYNAMGWYRQAPGKERELVAAIRISTDNTYYADSVKGRFTISRDNAKNTVYLQMNSLKPEDTAVYYCAASSQTQYGDNYWGQGTQVTVSS	high polyreactivity
QVQLVESGGGLVQAGGSLRLSCAASGSTFVVNAMGWYRQAPGKERELVAAIDDGAGDTYYADSVKGRFTISRDNAENTVYLQMNSLKPEDTAVYYCAADTWYQMDYWGQGTQVTVSS	low polyreactivity
QVQLVESGGGLVQAGGSLRLSCAASGRTFRANAMGWYRQAPGKERELVAAISKRGGNTYYADSVKGRFTISRDNAKNTVYLQMNSLKPEDTAVYYCAADFIGRDYDYWGQGTQVTVSS	high polyreactivity
QVHLVESGGALVQAGGSLRLSCAASAYTFSYYAMGWYRQAPGKEMELVAAITSTGSTYYADSVKGRFTISRDNAKNTVYLQMNSLKPEDTAVYYCNVDDATVGPVDYWGQGTQVTVSS	low polyreactivity
QVQLVESGGGLVQAGGSLRLSCAASGSTSSVYDMGWYRQEPGKERELVAGIDYSAGSTYYADSVKGRFTISRDNAKNTVYLQMNSLKPEDTAVYYCDADAAYYSGYDYWGQGTQVTVSS	low polyreactivity
QVQLVESGGGLVQAGGSLRLSCAASGRIFQVNAMGWYRQAPGKERELVAAITYSGGTTYYADSVKGRFTISRDNAKNTVYLQMNSLKPEDTAVYYCAAEGYGAQGDPWQYGYEYWGQGTQVTVSS	low polyreactivity
QVQRVESGGGLVQAGGSLRLSCAASGRTFRYYAMGWYRQAPGKERELVAAITSGGSTSYADSVKGRFTISRDNAKNTVYLQMNSLKPEDTAVYYCAAVPAGLWATYPQFRYGYWGQGTQVTVSS	high polyreactivity

From the nanobody polyreactivity screen of Harvey et al. (2022)
